In patent US20240026407A1, “MODIFICATION OF SAPONINS” (GLAXOSMITHKLINE BIOLOGICALS SA, priority 2020, published 2024):

Assays:
Type in all cases: biochemical, Quillaja saponaria
[1] = Experiment 6-1: screening of rhamnosidases for derhamnosylation of saponins in treated bark extract (2%), QS-17 2296 to QS-18 2150 (PAR %); settings: TBE 2%, pH 7.5, 30 degC, 18 h; TIC peak area ratio percent of rhamnosylated starting saponin to derhamnosylated product, LCMS/MS; negative controls 4.876, 5.225
[2] = Experiment 6-1: screening of rhamnosidases for derhamnosylation of saponins in treated bark extract (2%), desglucosyl-QS-17 2134 to QS-21 1988 (PAR %); settings: TBE 2%, pH 7.5, 30 degC, 18 h; TIC peak area ratio percent, LCMS/MS; negative controls 2.719, 2.158
[3] = Experiment 6-1: screening of rhamnosidases for derhamnosylation of saponins in treated bark extract (2%), QS-17 2310 to QS-18 2164 (PAR %); settings: TBE 2%, pH 7.5, 30 degC, 18 h; TIC peak area ratio percent, LCMS/MS; negative controls 3.061, 2.429
[4] = Experiment 6-1: specificity of rhamnosidases towards other rhamnose residues (C3 saccharide rhamnose, C28 saccharide rhamnose); settings: TBE 2%, pH 7.5, 30 degC, 18 h; LCMS/MS; negative controls 0.18, 0.17

Row | Molecule | QS-17 (PAR %) [1] [%] | Peak75 (PAR %) [2] [%] | Peak57 (PAR %) [3] [%] | ratio PP/QS-21 [4]
1 | 1040 (protein, listed as Rhodopirellula baltica) MNEDGWQDRRQLPRFSWIRLAKGRSAELSSIPVRPLKMLLSILFLTVITVAASSSVSALEPQRLRCEYLENPTGIDAARTRLSWQVTSDQRGQSQIAYRLLVASSEEQLGSGVGDLWDSGKVKSDQTLFVEYAGKPLSSRQECFWKVQVWDGAGNATESEVASWSMGLLDQSDWSAEYISYRDDSPIHTDLSTLHLPAARQYRKEFSASKSIKRATVYATALGIYELHLNGQRVGDASFAPGWTDYRKRAYYNTYDVTNLVREGDNAIGAWVADGWYSGYVGFGLLTGMGPEKNGRSTYGKTPSFMSQLEIEFEDGTKQTIGTDTTWKVTGEGPIQEADLLMGESYDARREMVGWSEPGFDHDHWDDAILAKQNGQVTAAFYEFRNPTTTGAGVKKVGEQRDFGFKRPELEAFPGVPVRVTQEIPAKTVSKLEPGTFVFDLGQNFAGTIRLKIKGREGERIQLRYGEMLHPDGRLMTENLRKARATDYYTCKGNPDGEFYQPRFTFHGFQFVEVKRLSDSSEDAGKATDSQNVQTPPLDMVTGLVLHSDTPMASTFECSDPMVNQLFKNVLWTQRANFLDLPTDCPQRDERMGWTGDAQAYVATAAYNADIGAFYTKWLRELMESQRPSGAFPGYAPYPFQHGWDFGTAWADAGVICPWTIWQFYGDTRVIDDCWEPMTRFMRWRKQTSVNDLGVSHGNAWGDWLSQGEETPLDYIDTVYFAISARMMAEMAEATGRDEEAKLYREQRAATQAAFQAKYLNEDGSITVRTQTAQALALFADLVPAEQREATGKYLAKRLSENGNHMATGFLGTRPLLPVLSGSGQHDLATFLLQSREFPSWGYEISNGATTIWERWDSYTKEDAFGRHNAAMNSFSHYAFGAVCEWMFATLAGIQSDGPGFKRIVIRPTPPSPGSNAMHEPINWVKASYESIRGTIRSEWKMVDGRFHLNVTIPANTTATVYLPTNDANSITESGNALADTANVSLLRKETNVVALTVHSGSYEFLASSGIVPAKVSLKSSEPKDNSINPGEIDLTDATKLESWDFRNPQDLAKWGERKSVDIEQRNGSAYLVATGDDSQMAVRMTKPLEGKLVIELRASPSQNSTSQFYWAIPGRGFNGQQQTKRLLRQSDAVNAYLFAIPDALTVGKLRFDPFATYDEYANAGEMMIESISIYRLVD | 5.244 | 2.372 | 3.084 | 0.18
2 | 1078 (protein, listed as Flavobacterium johnsoniae) MFQKKHLFFILLLASIVSAQEVHKKETNFQPTLESSKPWVYWYWMKSAYSKPGITADLEAMKQAGIAGAYLMTIKGPANPPLIDPPVLQLTPEFWDMIHWAFKEADRLGLKLAFHGADGFAVAGGPWITPEMSMQKIVWSTTEILGGKKVTSKLPVPAHYKDYYKNIATFAIPIKEYEITSQMQLPKVTTSNNTDASFLADPKKDENFKFADAGWIQYEFAQPFTCKSIVIETKGRDFQAQRLIVEVSDDGVNFRFHERMIAPRHGWQDMDFPNTHTITPVTAKYFRFVCDPKGTEPGAEDLDFAKWKQNLKVSKITLSNQSLINNYEGKSGAIWRLTPQTTEKEIPNSDAFKKSEIINISNFVDADGNLNWKAPKGKWKILRMGHTSTGHENATGGAGKGLEVDKFNPELIRFQLDHWFGEAVRSAGPELTSKVLEILHFDSWECGSQNWSSVFQTEFKKRRGYDLVEYLPVMAGIPVESADFSEKVLYDIRKTIADLVADNFYGTIAQIAKEYNVKLSAENVAPVVTSDALLHYKYVDYPSGEFWLKSPTHDKPFDMVDAISGGHIYGKDIIQAESFTALRMDWDEHPGNLKTTADRNYALGINRLFYHVFVHNPWTDRKPGMTLDDIGTFFQRDQTWWKPGKAWFDYCQRVQFQLQKGKPIIDLAVFSGEDFPSRSFVPDRLVPFIPNVFGKERLESEKIRLENEGQPTAKMPKEVTYSKNITDLSQWINPLNGYQYDSFNADVLINRAKVINGKISFEGGIEYGALFFPGSHKMAPNKMLSLASAEKILQLLKDGATIFVDEKPNLQPGVQSEADQKKWQNVIDEIWNNTNSATWKIGKGTVIKLPYLGNDFASIGISQDVYFTNLNRVDSETLAWAHRKSDTEDIYFISNQKAEKRTFDASFRILGKVPQWYNPVTDKTSALDNWKIENGRTIVSITLDANESGFVMFKEETKEILAKGRSSEFEKVQTLDENWKLQFDTEFKGPKEVVKINKLFDWSTSENDQIKYYSGTVVYKKEFIWKGKDSSKTWLDLGEISNIAEIKINGKDCGALWTFPFKTDISKALQKGKNTIEIKVTNTWANRLIGDQKLPKEERLTWTTAPFRLEGEPLLKAGLLGPVIIVKEK | 5.218 | 2.153 | 2.788 | 0.16
3 | 1031 (protein, listed as Pedobacter heparinus) MTNFSCIAKRITSFLMLFLSCSPFITAQVKSGTIVYPRGSFDADWISCPDVNLKSYGVFHMRKVFELTSRPKQFVVHVSGDQRYRLFANGTPVCFGPARGDLRNWNYETIDIAPYLKTGKNVLAVQLWNMGSGAPAAQLTYQTGFILQGNSNAEQMVNTNNSWRIIQNKGYFPEPFPPSRLASYIVGSCDSVVFKNYPFGWQNINYDDKSWLSPVSETKPRYYTEKRSLIPRSIPMMEEKIEPITGIVRILGTDTSAILNSFNKNGSITIPANTKATILFDRKTLTTAYPEITFSKGSNGKVKITYAESLFNSENLKGNRNEIKNKTIKGYYDVFLPDGGTAHTFRPLWTRTFRYIQFDITTGSEPMVIDKMQSVFTAYPFKEHAFFTSNDSTLHEIWDVSWRTARLCANETYMDCPYYEQLQYVGDTRIQALISLYVSGDDRLMRNAIEQFHQSQIPDGLTMDAYPAGGGKFIPPFSLFWIAMLHDFYWYRDDEKFIEKYLIPMEAILKWFEYRLDNNSGMLGKTGYWNFVDWSFSPKGIPSGGLEGNSSILSLQYVYALEQAAEIFAHAKQQQKADYYHNLGQKIKRAVYARCYDINNRLLADSPERKAFSQHANIWSIITDCIPFKDQEATMERIMNDSTLTATSLYYRFYYTKAMKKAGLGSLYLSSLRPWKQMLDLGFSTFPETLAPNVRSDCHAWSASPCYDFLATVCGIEPGTPGFATVRISPNLGNLKAVSGELPHPLGPIKVSYKKIKEGSYSAHIELPANLNGIFISKDQKVILTGGKQEITFKYE | 5.218 | 2.367 | 3.096 | 0.17
4 | 995 (protein, Bacteroides thetaiotaomicron) MILLGALSLASSTFAQTWIWYPGDYEIWLGNQMNNRRTERGAFFPPFWKTDSHYVVVEFSKVLNLSEPEEVFIAAEGTYNVKLDGKLQFGMPETLLLPAGKHSLNIKVWNQATPPTIYVKGKTVNSDSSWRVTYEDKEWIDESGKASDTSATIYMDAGCWNFDGATQRPSQFSLMREPQQPVAKTEQPEGGILYDFGKETFGFITLKNLSGKGKIDLYYGESPEEAKDKAYCETLDKLLLEPGQITDLAIRSTSPLHHSDNEYTLENSKAFRYVYITHEPEVQIGEVSMQYEYLPEEYRGNFRCNDEELNCIWEVGAYTMHLTTREFFIDGIKRDRWVWSGDAIQSYLMNYYLFFDSESVKRTIWLLRGKDPVTSHSNTIMDYTFYWFLSVYDYYMYSGDRHFVNQLYPRMQTMMDYVLGRTNKNGMVEGMSGDWVFVDWADGYLDKKGELSFEQVLFCRSLETMALCADLVGDKDGQQKYEKLASALKAKLEPTFWNNQKQAFVHNCVDGRQSDAVTRYANMFSVFFDYLNADKQQAIKQSVLLNDEILKITTPYMRFYELEALCALGEQETVMKEMKAYWGGMLKAGATSFWEKYNPEESGTQHLAMYGRPYGKSLCHAWGASPIYLLGKYYLGVKPTKEGYKEFAVSPVLGGLKWMEGTVPTPNGDIHVYMDNKTIKVKATEGKGYLTIQSRRQPKANMGTVEKVSEGVWRLWIDSPEERIVTYRL | 5.223 | 2.545 | 3.002 | 0.17
5 | 1050 (protein, listed as Streptomyces bottropensis) MNNAPYDLRIDTGGDQFAVSGPAPRLSWKPPSDTGHPAGYELECTVDGDAQPALRVAPGRHRFLPWPWAALGSGRQVEWRVRADGPGGPTPWSEWNAFEVGLLDEDWQARWISPAESGDPGYGKRPAHTLTARFEVRAGVRSARLYATALGLYEAYVNGERAGTAELSPGSTSYDRTLHAQASDVTAAVRAGGNLVEIVLSDGWYRGQVGAFRLPAGWGTVLGARAELHIAYEDGSRQVVRSDETWTSTRSAITRADLMDGQSTDFRAGRDTEQPVLVDRVEAAAIDWSPAPPVRVVASRPAQSVKQLRDGLWIADFGQNASGRLAVGDLGPAGTRTVIDYGEHVGPDGDLTTAHLDSSRPGEEPIPFVQRDEVVSMGRGETFEPRHTVHGFQYARIRRDGAPLDPASLTMRVVHTDLRRAGSFACSDDDLNRLHEIADWSFRGNAVDVPTDCPTRERLAWTGDYQVFAPTATRLYDVLGFSRKWLRSVRDDQLPDGRIANFSPDGRRIKHHLDDQFAMMTGSAGWGDAIVAVPWELYQSYGDQEILAENWEAMVRWVEWALRTARTARHHSRRERSAEPRPHERYLWDGSFHWGEWTEPRTKTADGTRIDPVKTDPVAWFMADKGEVGTAFLYRSTSTLADVARVLGRTEDAARYAETAEHVRDAWRTEFLTPDGRTTGDTQAGYVRALSLGLVPAELRPAAAARLVELIRSAGTHLGTGFLATGDLLPVLADTGHTDMAYELLLRRTAPSWLYMLDHGATTIWEDWEGIDENGDAHDSLNHYSKGAVIRFLHTHTLGLRQAPGSVAWESVEVAPVPHPSLTWARGTHESPQGTIAVEWRTTGDELTLAVDVPPATTARVVFPDGTTETATTGTFRATRRITCASSARSARAPGDEPLVRSEGATD | 5.251 | 2.528 | 2.305 | 0.17
